{"source": "paper PMC10786891", "about": "“Massively parallel profiling of RNA-targeting CRISPR-Cas13d”", "binders": {"B1": {"name": "target 3 insU 3' of 13,insC 3' of 3 (mixed)", "RNA 1": "CACCCGUGCAAAAUUGCAGGGGUCUAAAACGACCUGAAUAUUUCAGAUCAAA", "RNA 2": "GGGAAUGGAUCCACAUCUACGAAUUCGUUUUUGAUCUGAUAAUAUUCAGGCUCUGCAGAUCGGAAGAGCACACGU"}, "B2": {"name": "target 3 insA 3' of 8,insG 3' of 6 (mixed)", "RNA 1": "B1 RNA 1", "RNA 2": "B1 RNA 2 with U40A, A42U, U43A, A44U, U45A, A48G, G49A, C51G"}, "B3": {"name": "target 3 C1U,U21A (mixed)", "RNA 1": "B1 RNA 1", "RNA 2": "GGGAAUGGAUCCACAUCUACGAAUUCGUUUAUGAUCUGAAAUAUUCAGGUUUGCAGAUCGGAAGAGCACACGU"}, "B4": {"name": "target 3 insC 3' of 8,insA 3' of 6 (mixed)", "RNA 1": "B1 RNA 1", "RNA 2": "B1 RNA 2 with U40A, A42U, U43A, A44U, U45C, G49A, C51G"}, "B5": {"name": "target 3 insG 3' of 22,insA 3' of 2 (mixed)", "RNA 1": "B1 RNA 1", "RNA 2": "GGGAAUGGAUCCACAUCUACGAAUUCGUUUGUUGAUCUGAAAUAUUCAGGUACUGCAGAUCGGAAGAGCACACGU"}, "B6": {"name": "target 3 G3A,G4U (mixed)", "RNA 1": "B1 RNA 1", "RNA 2": "B3 RNA 2 with A31U, G48U, G49A, U51C"}, "B7": {"name": "target 3 U2A,G4U (mixed)", "RNA 1": "B1 RNA 1", "RNA 2": "B3 RNA 2 with A31U, G48U, U50A, U51C"}, "B8": {"name": "target 3 G3U,A9G (mixed)", "RNA 1": "B1 RNA 1", "RNA 2": "B3 RNA 2 with A31U, A43G, G49U, U51C"}, "B9": {"name": "target 3 G4U (mixed)", "RNA 1": "B1 RNA 1", "RNA 2": "B3 RNA 2 with A31U, G48U, U51C"}, "B10": {"name": "target 3 insC 3' of 4,insC 3' of 3 (mixed)", "RNA 1": "B1 RNA 1", "RNA 2": "B1 RNA 2 with U40A, A42U, U43A, A44U, U46C, C47A, A48G, G49C"}, "B11": {"name": "target 3 del4 (mixed)", "RNA 1": "B1 RNA 1", "RNA 2": "GGGAAUGGAUCCACAUCUACGAAUUCGUUUUUGAUCUGAAAUAUUCAGUCUGCAGAUCGGAAGAGCACACGU"}, "B12": {"name": "target 3 insA 3' of 10,insC 3' of 8 (mixed)", "RNA 1": "B1 RNA 1", "RNA 2": "B1 RNA 2 with U40A, A42U, U43A, U46C, C47U, A48C, G49A, C51G"}, "B13": {"name": "target 3 insU 3' of 14,insG 3' of 5 (mixed)", "RNA 1": "B1 RNA 1", "RNA 2": "B1 RNA 2 with A39U, U40A, C51G"}, "B14": {"name": "target 3 U7G,U8C (mixed)", "RNA 1": "B1 RNA 1", "RNA 2": "B3 RNA 2 with A31U, U44C, U45G, U51C"}, "B15": {"name": "target 3 C6G,A18G (mixed)", "RNA 1": "B1 RNA 1", "RNA 2": "B3 RNA 2 with A31U, A34G, C46G, U51C"}, "B16": {"name": "target 3 U21A (mixed)", "RNA 1": "B1 RNA 1", "RNA 2": "B3 RNA 2 with U51C"}, "B17": {"name": "target 3 insC 3' of 22,insG 3' of 22 (mixed)", "RNA 1": "B1 RNA 1", "RNA 2": "GGGAAUGGAUCCACAUCUACGAAUUCGUUUCGUUGAUCUGAAAUAUUCAGGUCUGCAGAUCGGAAGAGCACACGU"}, "B18": {"name": "target 3 C6U,U8C (mixed)", "RNA 1": "B1 RNA 1", "RNA 2": "B3 RNA 2 with A31U, U44C, C46U, U51C"}, "B19": {"name": "target 3 U2C,U7A (mixed)", "RNA 1": "B1 RNA 1", "RNA 2": "B3 RNA 2 with A31U, U45A, U50C, U51C"}, "B20": {"name": "target 3 C1A,G3A (mixed)", "RNA 1": "B1 RNA 1", "RNA 2": "B3 RNA 2 with A31U, G49A, U51A"}, "B21": {"name": "target 3 C6G,U8G (mixed)", "RNA 1": "B1 RNA 1", "RNA 2": "B3 RNA 2 with A31U, U44G, C46G, U51C"}, "B22": {"name": "target 3 G3A (mixed)", "RNA 1": "B1 RNA 1", "RNA 2": "B3 RNA 2 with A31U, G49A, U51C"}, "B23": {"name": "target 3 C6U,U22A (mixed)", "RNA 1": "B1 RNA 1", "RNA 2": "B3 RNA 2 with U30A, A31U, C46U, U51C"}, "B24": {"name": "target 3 insG 3' of 16,insU 3' of 3 (mixed)", "RNA 1": "B1 RNA 1", "RNA 2": "B1 RNA 2 with U37G, G38U, A39G, U40A, C51U"}, "B25": {"name": "target 3 insG 3' of 8,insC 3' of 5 (mixed)", "RNA 1": "B1 RNA 1", "RNA 2": "B1 RNA 2 with U40A, A42U, U43A, A44U, U45G, G49C, C51G"}, "B26": {"name": "target 3 G19U,U21A (mixed)", "RNA 1": "B1 RNA 1", "RNA 2": "B3 RNA 2 with G33U, U51C"}, "B27": {"name": "target 3 insC 3' of 7,insC 3' of 4 (mixed)", "RNA 1": "B1 RNA 1", "RNA 2": "B1 RNA 2 with U40A, A42U, U43A, A44U, U46C, G50C, C51G"}, "B28": {"name": "target 3 insA 3' of 22,insG 3' of 8 (mixed)", "RNA 1": "B1 RNA 1", "RNA 2": "B5 RNA 2 with G31A, U46G, C47U, A48C, G49A, U51G, A52U"}, "B29": {"name": "target 3 insA 3' of 10,insU 3' of 3 (mixed)", "RNA 1": "B1 RNA 1", "RNA 2": "B1 RNA 2 with U40A, A42U, U43A, C51U"}, "B30": {"name": "target 1 A1G,U3C (mixed)", "RNA 1": "CACCCGUGCAAAAAUGCAGGGGUCUAAAACUGAGCGGAUAACCUCUCUAUGG", "RNA 2": "GGGAAUGGAUCCACAUCUACGAAUUCGUACCAUAGAGAGGUUAUCCGCCCGCCGAGAUCGGAAGAGCACACGU"}, "B31": {"name": "target 1 U8C,A18U (mixed)", "RNA 1": "B30 RNA 1", "RNA 2": "B30 RNA 2 with A34U, U44C, C49U, G51A"}, "B32": {"name": "target 1 insG 3' of 16,insG 3' of 9 (mixed)", "RNA 1": "B30 RNA 1", "RNA 2": "GGGAAUGGAUCCACAUCUACGAAUUCGUACCAUAGAGGAGGUUAGUCCGCUCACCGAGAUCGGAAGAGCACACGU"}, "B33": {"name": "target 1 C6A,A20C (mixed)", "RNA 1": "B30 RNA 1", "RNA 2": "B30 RNA 2 with A32C, C46A, C49U, G51A"}}, "note": "Substitutions are numbered along the chain they refer to. Names may count otherwise.", "data": [{"biological_target": "T1, EsCas13d, nuclease-dead (Eubacterium siraeum, UniProt B0MS50, R295A;H300A;R849A;H854A)", "T1 sequence": "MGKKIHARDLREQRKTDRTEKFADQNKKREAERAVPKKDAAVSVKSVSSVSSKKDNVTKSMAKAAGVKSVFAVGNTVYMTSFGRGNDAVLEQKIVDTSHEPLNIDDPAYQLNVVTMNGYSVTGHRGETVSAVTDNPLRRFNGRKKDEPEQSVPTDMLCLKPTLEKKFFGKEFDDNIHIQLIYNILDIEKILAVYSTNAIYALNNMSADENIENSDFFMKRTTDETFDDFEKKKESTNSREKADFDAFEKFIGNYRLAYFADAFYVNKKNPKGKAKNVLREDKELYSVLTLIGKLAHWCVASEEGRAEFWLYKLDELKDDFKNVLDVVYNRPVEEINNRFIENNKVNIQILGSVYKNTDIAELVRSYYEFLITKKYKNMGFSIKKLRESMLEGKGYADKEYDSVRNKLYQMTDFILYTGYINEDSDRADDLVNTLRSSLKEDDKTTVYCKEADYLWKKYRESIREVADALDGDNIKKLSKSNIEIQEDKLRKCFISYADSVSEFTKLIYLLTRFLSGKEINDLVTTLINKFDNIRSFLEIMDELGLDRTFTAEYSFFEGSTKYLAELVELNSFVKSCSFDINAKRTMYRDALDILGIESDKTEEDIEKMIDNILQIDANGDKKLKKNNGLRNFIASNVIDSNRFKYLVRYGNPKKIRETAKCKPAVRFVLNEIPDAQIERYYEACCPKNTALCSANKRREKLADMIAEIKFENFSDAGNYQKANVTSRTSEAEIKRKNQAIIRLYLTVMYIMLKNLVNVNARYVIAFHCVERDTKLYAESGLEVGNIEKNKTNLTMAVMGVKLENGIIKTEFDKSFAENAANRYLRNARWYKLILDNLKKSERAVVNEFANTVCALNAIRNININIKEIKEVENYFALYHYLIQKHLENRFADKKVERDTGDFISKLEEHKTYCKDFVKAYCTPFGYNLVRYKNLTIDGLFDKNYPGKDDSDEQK", "experiment": "crRNA (strand 1, pre-loaded); Mg2+; 40 mM Tris-HCl pH 7.5, 150 mM NaCl, 6 mM MgCl2, 1 mM DTT, 0.1% Tween-20, 0.2 mg/ml BSA; 25 C; 10 min per concentration, then washed", "conditions": "tags: His6-TwinStrep-SUMO cleaved; N-terminal SNAP kept (SNAP-Surface 488); label: 3' end held by stalled T7 RNA polymerase", "units": {"Kd": "nM"}, "values": [{"binder": "B1", "Kd": "86.5 ± 19.5"}, {"binder": "B2", "Kd": "45.5 ± 4.5"}, {"binder": "B3", "Kd": "84 ± 26"}, {"binder": "B4", "Kd": "71 ± 10.5"}, {"binder": "B5", "Kd": "72 ± 21"}, {"binder": "B6", "Kd": "8.95 ± 0.95"}, {"binder": "B7", "Kd": "1.98 ± 0.2"}, {"binder": "B8", "Kd": "67.5 ± 12"}, {"binder": "B9", "Kd": "4.25 ± 0.335"}, {"binder": "B10", "Kd": "22.9 ± 2.65"}, {"binder": "B11", "Kd": "23.6 ± 3"}, {"binder": "B12", "Kd": "102 ± 37"}, {"binder": "B13", "Kd": "60.5 ± 19.5"}, {"binder": "B14", "Kd": "70 ± 11"}, {"binder": "B15", "Kd": "47 ± 9.5"}, {"binder": "B16", "Kd": "35.5 ± 4"}, {"binder": "B17", "Kd": "65.5 ± 21.5"}, {"binder": "B18", "Kd": "33.5 ± 2.95"}, {"binder": "B19", "Kd": "77 ± 23"}, {"binder": "B20", "Kd": "37.5 ± 13.5"}, {"binder": "B21", "Kd": "64 ± 8.5"}, {"binder": "B22", "Kd": "46 ± 11.5"}, {"binder": "B23", "Kd": "13.3 ± 1.4"}, {"binder": "B24", "Kd": "~71"}, {"binder": "B25", "Kd": "39 ± 4"}, {"binder": "B26", "Kd": "99.5 ± 14.5"}, {"binder": "B27", "Kd": "74.5 ± 15"}, {"binder": "B28", "Kd": "~90"}, {"binder": "B29", "Kd": "67.5 ± 17.5"}, {"binder": "B30", "Kd": "35 ± 7"}, {"binder": "B31", "Kd": "43 ± 4"}, {"binder": "B32", "Kd": "31 ± 4"}, {"binder": "B33", "Kd": "38 ± 4"}]}]}
